We go through 3 molecules from patent publication US20230295329A1 (published 2023).

This test concerns the target T1, PD-1-His protein (Cat. #10377H08H, Sino Biological) (human, UniProt Q15116 25-167).
T1 construct: Bought reagent; also called huPD-1-his; hu PD-1-his; not shown: His tag of the bought protein
Nature of the test: ELISA, PD-1-His coated, HRP goat anti-human IgG detection.

T1 sequence (Q15116 25-167 limits assumed): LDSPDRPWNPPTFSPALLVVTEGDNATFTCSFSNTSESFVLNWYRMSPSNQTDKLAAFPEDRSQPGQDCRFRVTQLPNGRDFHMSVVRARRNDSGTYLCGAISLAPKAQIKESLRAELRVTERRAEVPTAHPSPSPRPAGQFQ

B1: H005-1 (antibody, V domains shown)
VH: EVQLVESGGGLVQPGGSLRLSCAASGFTFSSYMMSWVRQAPGKGLEWVATISGGGANTYYPDSVKGRFTISRDNAKNSLYLQMNSLRAEDTAVYYCARQLYYFDYWGQGTTVTVSS
VL: DIQMTQSPSSLSASVGDRVTITCLASQTIGTWLTWYQQKPGKAPKLLIYTATSLADGVPSRFSGSGSGTDFTLTISSLQPEDFATYYCQQVYSIPWTFGGGTKVEIKR
With B1, the “OD value MAX” value amounted to 1.21.

B2: Hu32a-85.IgG4AA (antibody, V domains shown)
VH: EVQLVQSGAEVKKPGSSVKVSCKASDFTFTDYEIHWVKQAPGHGLEWIGLFDPETGGIVYNQKFKGKATLTADKSTSTAYMEFSSLRSEDTAVYYCTREGYNRDWYFDVWGQGTTVTVSS
VL: DIVMTQTPLSLPVTPGEPASISCRSSQSLVHSTGNTYLEWYLQKPGQSPQLLIYKVSNRFSGVPDRFSGSGSGTDFTLKISRVEAEDVGVYYCFQGSHVPYTFGGGTKVEIKR
notes: Full-length IgG4-AA (S228P, F234A, L235A) antibody with kappa light chain
As for B2, the “OD value MAX” value is 1.26.

B3: Hu23-11.IgG4AA (antibody, V domains shown)
VH: EVQLVQSGAEVKKPGSSVKVSCKASGGTFSDYEMHWVRQAPGQGLEWMGLIDPETGGTVYNQKFKDRVTITADKSTSTAYMELSSLRSEDTAVYYCARERFSYYGSTSDWYFDVWGQGTTVTVSS
VL: DIVMTQTPLSLPVTPGEPASISCRSSQSLVHSTGNTYLEWYLQKPGQSPQLLIYKVSNRFSGVPDRFSGSGSGTDFTLKISRVEAEDVGVYYCFQGSHVPYTFGGGTKVEIKR
notes: Full-length IgG4-AA (S228P, F234A, L235A) antibody with kappa light chain; LCDR1 mutant N28T (Kabat)
Turning to B3, the “OD value MAX” value worked out at 1.46.
